Test results: patent US20070032403A1, “Crystal structure of the ITK kinase domain” (Boehringer Ingelheim Pharmaceuticals, Inc., priority 2003, published 2007)

B1: ITK/KD/Q343: human ITK kinase domain fragment comprising ITK residues 343-620 (SEQ ID NO. 9) (protein, listed as Homo sapiens)
chain: GSMQKAPVTAGLRYGKWVIDPSELTFVQEIGSGQFGLVHLGYWLNKDKVAIKTIREGAMSEEDFIEEAEVMMKLSHPKLVQLYGVCLEQAPICLVFEFMEHGCLSDYLRTQRGLFAAETLLGMCLDVCEGMAYLEEACVIHRDLAARNCLVGENQVIKVSDFGMTRFVLDDQYTSSTGTKFPVKWASPEVFSFSRYSSKSDVWSFGVLMWEVFSEGKIPYENRSNSEVVEDISTGFRLYKPRLASTHVYQIMNHCWKERPEDRPAFSRLLRQLAEIAESGL
B2: ITK/KD/G354: human ITK kinase domain fragment comprising ITK residues 354-620 (SEQ ID NO. 1) (protein, listed as Homo sapiens)
chain: GSMGKWVIDPSELTFVQEIGSGQFGLVHLGYWLNKDKVAIKTIREGAMSEEDFIEEAEVMMKLSHPKLVQLYGVCLEQAPICLVFEFMEHGCLSDYLRTQRGLFAAETLLGMCLDVCEGMAYLEEACVIHRDLAARNCLVGENQVIKVSDFGMTRFVLDDQYTSSTGTKFPVKWASPEVFSFSRYSSKSDVWSFGVLMWEVFSEGKIPYENRSNSEVVEDISTGFRLYKPRLASTHVYQIMNHCWKERPEDRPAFSRLLRQLAEIAESGL
B3: ITK/KD/S361: human ITK kinase domain fragment comprising ITK residues 361-620 (SEQ ID NO. 12) (protein, listed as Homo sapiens)
chain: GSMSELTFVQEIGSGQFGLVHLGYWLNKDKVAIKTIREGAMSEEDFIEEAEVMMKLSHPKLVQLYGVCLEQAPICLVFEFMEHGCLSDYLRTQRGLFAAETLLGMCLDVCEGMAYLEEACVIHRDLAARNCLVGENQVIKVSDFGMTRFVLDDQYTSSTGTKFPVKWASPEVFSFSRYSSKSDVWSFGVLMWEVFSEGKIPYENRSNSEVVEDISTGFRLYKPRLASTHVYQIMNHCWKERPEDRPAFSRLLRQLAEIAESGL

Experiments:
[1] = molecular target: T1, GST-ITK/KD/G354 (wild-type ITK kinase domain) (Homo sapiens, UniProt Q08881); test: Tec Family Kinase Assay (DELFIA), wild-type ITK kinase domain; format: biochemical; details: 15 μM ATP substrate mix
T1 construct: made in house; host or cells: Spodoptera frugiperda Sf21 cells, baculovirus

[2] = molecular target: T2, GST-ITK/KD/G354/F437Y (ITK F437Y) (Homo sapiens, UniProt Q08881, F437Y); test: Tec Family Kinase Assay (DELFIA), F437Y mutant ITK kinase domain; format: biochemical; details: for IC50: GST-ITK/KD/G354/F437Y mutant; for Fold Difference in IC50: ITK F437Y IC50 versus wild-type ITK IC50
T2 construct: made in house; host or cells: Spodoptera frugiperda Sf21 cells, baculovirus

poly Glu4: Tyr1 (PGTYR) = test: Catalytic activity of ITK kinase domain constructs (kinase assay); format: biochemical; details: for Kinase Activity: Using 250 nM enzyme; for catalytic activity (in words): human ITK kinase domain fragments
Procedure: ITK is purified as a GST-fusion protein to test for catalytic activity. The kinase activity is measured using DELFIA (Dissociation Enhanced Lanthanide Fluoroimmunoassay) which utilizes europium chelate-labeled anti-phosphotyrosine antibodies to detect phosphate transfer to a random polymer, poly Glu4: Tyr1 (PGTYR). The screen utilizes the Zymark Allegro UHTS system to dispense reagents, buffers and samples for assay, and also to wash plates. The kinase assay is performed in kinase assay buffer (50 mM HEPES, pH 7.0, 25 mM MgCl2, 5 mM MnCl2, 50 mM KCl, 100 μM Na3VO4, 0.2% BSA, 0.01% CHAPS, 200 μM TCEP). Test samples initially dissolved in DMSO at 1 mg/mL, are pre-diluted for dose response (9 doses with starting final concentration of 3 μg/mL, 1 to 3 serial dilutions) with the assay buffer in 384-well polypropylene microtiter plates. […] Background wells are incubated with buffer, rather than 20 μL enzyme. The assay plates are incubated for 30 min at room temperature. Following incubation, the assay plates are washed three times with 100 μL wash buffer (50 mM Tris-HCL, pH 7.4, 150 mM NaCl, 0.05% Tween 20, 0.2% BSA). A 50 μL aliquot of europium-labeled anti-phosphotyrosine (Eu^3+-PT66, Wallac CR04-100) diluted in 50 mM Tris-HCl, pH 7.8, 150 mM NaCl, 10 μM DTPA, 0.05% Tween 40, 0.2% BSA, 0.05% BGG (1 nM final concentration) is added to each well and incubated for 30 min at room temperature. Upon completion of the incubation, the plate is washed four times with 100 μL of wash buffer and 50 μL of DELFIA Enhancement Solution (Wallac) is added to each well. After 15 min, time-resolved fluorescence is measured on the LJL's Analyst (excitation at 360 nm, emission at 620 nm, EU 400 Dichroic Mirror) after a delay time of 250 μs. An IC50 can be obtained by fitting the rates vs. compound/ligand concentration data into a simple competitive inhibitor model. Under these assay conditions, a 3-fold difference in compound potency (IC50) is considered within the variation of the assay. Preferred ligands will have an IC50<1000 nM.
A significant obstacle in the process of obtaining the 3-dimensional structure of a protein by X-ray crystallography is the identification of a protein fragment that is amenable to the formation of protein crystals of suitable quality. Since kinases often have multiple domains, one strategy that increases the likelihood of generating protein crystals of the kinase domain (catalytic) fragment has been to delete the other domains. Furthermore, by making a kinase domain fragment analogous to that of a related kinase for which a crystal structure has been determined, one may further increase the probability of generating suitable protein crystals. Using these concepts, the human ITK/KD/Q343 construct was generated. Theory predicts that a more compactly folded protein has a greater probability of producing high quality protein crystals. Therefore, the human ITK/KD/Q343 construct was subjected to limited proteolysis with trypsin to identify any fragments of the construct that are easily accessible to the protease and are thus likely to be less compactly folded. Using this strategy, the human ITK/KD/G354 and ITK/KD/S361 constructs were designed. To prioritize the three human ITK kinase domain protein fragments for crystallization trials, each was assayed for catalytic activity and for structural foldedness by circular dichroism-monitored thermal denaturation. […] Consequently, the ITK/KD/G354 construct was prioritized for structural studies since it was catalytically active and predicted to be tightly folded. To further increase the probability of obtaining suitable crystals, a murine construct (ITK/KD/G353) analogous to the human ITK/KD/G354 construct was generated. […]

[3] = Thermal denaturation of ITK constructs (circular dichroism-monitored); format: physicochemical; details: for Tm: 5 μM construct, pH 7.0 buffer, 230 nm, 2 to 100° C. at 0.2° C./min; for Tm comparison (in words): thermal denaturation studies
Procedure: Thermal denaturation experiments were performed on a Jasco J-720 spectropolarimeter equipped with a Peltier thermostatic cell holder. For each measurement, a 1 cm quartz cuvette was loaded with 5 μM ITK kinase domain construct in a pH 7.0 buffer containing 10 mM sodium phosphate, 100 mM NaCl and 1 mM TCEP. Absorbance data at 230 nm was collected as the temperature was scanned from 2 to 100° C. at a ramp rate of 0.2° C./min. The melting temperature (Tm) for each sample was calculated as the maximum deflection point of the first derivative of the melting transition using Origin (version 7.0).
A significant obstacle in the process of obtaining the 3-dimensional structure of a protein by X-ray crystallography is the identification of a protein fragment that is amenable to the formation of protein crystals of suitable quality. Since kinases often have multiple domains, one strategy that increases the likelihood of generating protein crystals of the kinase domain (catalytic) fragment has been to delete the other domains. Furthermore, by making a kinase domain fragment analogous to that of a related kinase for which a crystal structure has been determined, one may further increase the probability of generating suitable protein crystals. Using these concepts, the human ITK/KD/Q343 construct was generated. Theory predicts that a more compactly folded protein has a greater probability of producing high quality protein crystals. Therefore, the human ITK/KD/Q343 construct was subjected to limited proteolysis with trypsin to identify any fragments of the construct that are easily accessible to the protease and are thus likely to be less compactly folded. Using this strategy, the human ITK/KD/G354 and ITK/KD/S361 constructs were designed. To prioritize the three human ITK kinase domain protein fragments for crystallization trials, each was assayed for catalytic activity and for structural foldedness by circular dichroism-monitored thermal denaturation. […] Consequently, the ITK/KD/G354 construct was prioritized for structural studies since it was catalytically active and predicted to be tightly folded. To further increase the probability of obtaining suitable crystals, a murine construct (ITK/KD/G353) analogous to the human ITK/KD/G354 construct was generated. This murine ITK kinase domain construct has 3 conservative and 7 non-conservative amino acid substitutions when compared with the human ITK/KD/G354 construct which may alter the conformation or surface properties of the protein thus providing alternative opportunities for crystal formation.

T1 sequence (Q08881 with tags, fused parts or gaps): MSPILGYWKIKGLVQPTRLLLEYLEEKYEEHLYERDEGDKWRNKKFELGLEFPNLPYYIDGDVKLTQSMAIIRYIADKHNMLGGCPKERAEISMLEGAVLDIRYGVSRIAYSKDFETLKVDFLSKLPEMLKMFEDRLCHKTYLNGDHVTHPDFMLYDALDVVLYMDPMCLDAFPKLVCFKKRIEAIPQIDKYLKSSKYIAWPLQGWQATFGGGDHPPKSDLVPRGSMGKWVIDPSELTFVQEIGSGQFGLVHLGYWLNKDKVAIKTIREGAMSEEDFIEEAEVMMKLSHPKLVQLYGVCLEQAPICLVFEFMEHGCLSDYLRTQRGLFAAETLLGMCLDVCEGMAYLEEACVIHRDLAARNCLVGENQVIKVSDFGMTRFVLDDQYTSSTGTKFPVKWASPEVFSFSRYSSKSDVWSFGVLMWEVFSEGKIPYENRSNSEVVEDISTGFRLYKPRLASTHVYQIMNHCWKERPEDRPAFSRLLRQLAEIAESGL
T2 sequence (Q08881 with tags, fused parts or gaps F437Y): as the sequence (Q08881 with tags, fused parts or gaps) above, with F311Y counted along it

Molecule	IC50 [1] [nM]	IC50 [2] [nM]	Fold Difference in IC50 [2]	Kinase Activity (poly Glu4: Tyr1 (PGTYR)) [Fluorescent Units]	catalytic activity (in words) (poly Glu4: Tyr1 (PGTYR))	Tm [3] [°C]	Tm comparison (in words) [3]
CNc1ccc2c(c1)nc(NC(=O)c1ccc(C#N)cc1)n2CCC(N)=O [Compound 1]	460	1200	2.6				
Cc1ccc2c(c1)nc(NC(=O)c1ccc(C#N)cc1)n2CCC(N)=O [Compound 3]	440	500	1.1				
CN(C(=O)C1CCCCC1)c1ccc2c(c1)nc(NC(=O)c1ccc(C#N)cc1)n2CCCN1CCCC1=O [Compound 7]	15	160	10.7				
B1				2000	showed significant catalytic activity	50.0	
B2				910	showed significant catalytic activity	67.2	higher Tm than ITK/KD/Q343
B3				30	did not possess activity above background levels	72.8	highest Tm
